Data published in paper PMC9295118, “Tungsten Enzyme Using Hydrogen as an Electron Donor to Reduce Carboxylic Acids and NAD^+” (ACS Catalysis, 2022).

What was measured:
BaDH = biological target: T1, BaDH (Aromatoleum aromaticum, UniProt Q5P459); test: coupled assay with AORAa, NADPH at […] nm and HPLC of benzyl alcohol; format: biochemical; details: 100 mM citric buffer pH 5.5, 30 °C, benzaldehyde formed in situ by AORAa
T1 construct: gene adh; recombinant, expressed in E. coli BL21(DE3), purified; details in supplement
T1 sequence (Q5P459 1-362): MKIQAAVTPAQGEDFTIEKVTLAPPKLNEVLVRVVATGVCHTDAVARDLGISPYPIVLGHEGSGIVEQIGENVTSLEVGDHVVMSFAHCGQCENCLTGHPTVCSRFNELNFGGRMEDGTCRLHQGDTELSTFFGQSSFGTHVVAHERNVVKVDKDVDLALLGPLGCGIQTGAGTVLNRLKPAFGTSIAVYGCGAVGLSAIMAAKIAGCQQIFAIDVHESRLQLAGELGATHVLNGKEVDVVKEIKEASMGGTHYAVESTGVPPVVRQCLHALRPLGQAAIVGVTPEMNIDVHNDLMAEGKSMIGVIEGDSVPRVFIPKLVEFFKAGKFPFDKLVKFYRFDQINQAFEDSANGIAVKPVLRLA

purified protein [1] = substrate: NC(=O)c1ccc[n+]([C@@H]2O[C@H](COP(=O)(O)OP(=O)(O)OC[C@H]3O[C@@H](n4cnc5c(N)ncnc54)[C@H](O)[C@@H]3O)[C@@H](O)[C@H]2O)c1; test: purified protein; format: biochemical, Aromatoleum aromaticum; details: 2.5% H2 as electron donor, 100 mM Tris/HCl pH 8.0, 30 °C, anaerobic, FAD gamma-subunit site expected
purified protein [2] = substrate: O=C(O)c1ccccc1; test: purified protein; format: biochemical, Aromatoleum aromaticum; details: 2.5% H2 as electron donor, 0.6 mM NADPH, 100 mM citric buffer pH 5.5, 30 °C, W-cofactor beta-subunit site
[3] = substrate: O=Cc1ccccc1; test: steady-state kinetics, initial rates of benzaldehyde oxidation with NAD+; format: biochemical, Aromatoleum aromaticum; details: 1 mM NAD+, Tris/HCl pH 8.0, 30 °C, aerobic, W-cofactor beta-subunit site
Text: steady-state kinetics, initial rates of benzaldehyde oxidation with NAD+ on AORAa

How did the “coupled assay with AORAa, NADPH at 365 nm and HPLC of benzyl alcohol” value (BaDH) turn out when NC(=O)C1=CN([C@@H]2O[C@H](COP(=O)(O)OP(=O)(O)OC[C@H]3O[C@@H](n4cnc5c(N)ncnc54)[C@H](OP(=O)(O)O)[C@@H]3O)[C@@H](O)[C@H]2O)C=CC1 [NADPH] was run?
Its value is “confirming that NADPH was only turned over by BaDH, not by AORAa”.

O=Cc1ccccc1 [benzaldehyde] was tested. Which “coupled assay with AORAa, NADPH at 365 nm and HPLC of benzyl alcohol” value (BaDH) did it give?
Its value is “it also catalyzed the reduction of benzaldehyde with either NADH or NADPH”.

B1: AORAa (Aromatoleum aromaticum EbN1) (protein)
chain 1: MGWNRKVLRVNLAEGTCTPEPLNMQWADEYLGSRGLATKYLVSETDPKVDPLSPDNKMIMATGPLTGTMASTGGRYTVVTKGPLTGAIACSNSGGFFGAEMKFAGWDMVIFEGRSPTPVYLFIENERAELRDASYLWGRSCWETEESIRAQHQDPLIRVSSIGRAGENQVMFACIVNDLHRAAGRSGVGAVMGSKNLKAVAIRGTKGVSGIRDFPGFVRATSEAKKVLAGNPVTSEGLPKFGTQVLMNVINEMGALPTRNHRDVQFEDASKISAEAMHEKRPSDGKPQLVTNAACFGCTIACGRISAIDKTHFTVKNNPKYWGASGGLEYEAAWALGAANGVGDLEALQYANLLCNEQGMDPISFGATVGAAMELYETGVLTKERIGLDAPFGSADALAKLAEMTATGEGFGKEIGLGSKRLCEKYGHPELSMSVKGQEFPAYDSRGIQGMGLAYATSNRGACHLRGYTVASEVLGVPVKTDPHVIEGKAELVKAFQDATAVFDSAGICVFTSFAWTLADVQPQIAAACDGDWSMDKLATVGERIWNMERQFNNAAGLGAQDDNLPPRLTSEPAKSGPAKGMVNRLAEMLPEYYGVRGWTPEGTPTPETLSRLGLS
chain 2: MKHVILGNGPAGVIAAETLRRAAPTDDILLFGSEDAPPYSRMAIPYLLEGNIDESGTWLRKSPGHFDRLRIHEMRGRAVSLDSERRRILFDDGHFESWDRLLIATGSHPVRPPIPGIDLPEVQTCWTLEDARAIARFATPGARVLQLGAGFIGCIIMEALAARGVELTVVEMGDRMVPRMMTPTAGGMIRKWVEDQGVRVVTNAGVSRIDCRASNDAPLDVTLSTGEVVVADLVIVAAGVAPNIAFLEATPVHVAKGVLVDDRLQTSVPGIFAAGDVAEAPDLFTGAHLVAAIQPNAADQARVAALNMAGHEARLKGVLAINVLDTLGLISSSFGQWWGEERERGGAGVEHVDEAAYRYLSLQFKDDVLIGATSIGLTEHVGALRGLIHGRVRLGEWKERLLHSPLQFVDAYIARSQQPMALVR
notes: full-length AorABC, N-terminal Twin-Strep-tag on AorA, co-expressed with AorDE in Aromatoleum evansii; (alpha-beta)2-gamma complex, 218 kDa; with Aldehyde oxidoreductase polyferredoxin (iron-sulfur) subunit alpha
How did the Km (purified protein [1]) turn out when B1 was run?
The Km was 21.7 ± 2.7 µM.

What about the Vmax (purified protein [1]) of the same molecule?
Its Vmax is 3.7 µmol/min/mg.

What about the kcat (purified protein [1]) of the same molecule?
Its kcat is 13.4 s⁻¹.

And the kcat/Km (purified protein [1])?
The kcat/Km was 600000 M⁻¹ s⁻¹.

And the Km (purified protein [2])?
The Km was 33700 µM.

And the kcat (purified protein [2])?
Its kcat is 1.4 s⁻¹.

And the Km [3]?
The Km was 39.3 ± 6.6 µM.

And the Vmax [3]?
The Vmax was 33.8 µmol/min/mg.

And the kcat [3]?
The kcat was 123 s⁻¹.

What about the kcat/Km [3] of the same molecule?
Its kcat/Km is 3.1e+06 M⁻¹ s⁻¹.
